{"source": "patent US12296016B2", "about": "“Ceramide-like lipid-based delivery vehicles and uses thereof” (Children's Medical Center Corporation, priority 2018, dated 2025)", "key": {"[1]": {"details": "mouse, in vivo, 2.5 nmol/kg", "method": "The dose was 2.5 nmol/kg for 7 week old C57B/6J with an intranasal administration volume of 10 μL and an intraperitoneal injection volume of 200 μL."}, "[2]": {"tested_on": "human microvascular endothelial cells (HMECs)", "test": "Confocal fluorescence microscopy of lysosomal transport of GM1-peptides in HMECs", "type": "cell-based", "details": "2 μM, 1 hour continuous uptake, Lysotracker-Red", "method": "FIGS. 25A-25C. Confocal fluorescence microscopy images of lysosomal transport of GM1-peptides. (FIG. 25A) A schematic of endosomal sorting in human microvascular endothelial cells (HMECs). (FIG. 25B) Images HMECs incubated either with C16:0-GM1-peptide (top panels), or peptide alone (bottom panel). Cells were treated with 2 μM fluorescently green labeled compound for 1 hour for continuous uptake on coverslips, and imaged in the presence of Lysotracker-Red (red). […] Scale bars=10 μm."}, "MDCK cells": {"tested_on": "MDCK cells", "test": "Transcytosis in MDCK cells (transwell assay, streptavidin pull-down, fluorescence)", "method": "The in vitro transport (transcytosis) of the peptide-GM1 conjugates across a monolayer of MDCK cells, and in vivo transport across an intestinal or nasal barrier into the blood are assessed. The peptide alone are used as negative controls, and the GM1 analogs as positive controls. C6, and C12 fatty acid analogs of ceramide were also included in the experiments as direct comparisons to the GM1 and GM3 species.\nMDCK cells were seeded in 0.33 cm^2 inserts 3 days prior in media containing HBSS and […] defatted BSA. Electrical resistance was checked on day of experiment.\n• 1) peptide Control • 2) GM1-C6:0-peptide • 3) Peptide-C12 fatty acid • 4) Ceramide-C2-\n• 1) Check electrical resistance by EVOM. • 2) Prepare stock solutions above. • 3) Wash cells apical and basolateral with HBSS, without FBS. […]\n• 1) Washed Stretavidin Magnetic beads with TBS-T 4×, to remove azide. • 2) Resuspend heads in 800 uL TBS then aliquoted 50 uL out to each tube • 3) Add 1000 μL to streptavidin heads overnight at 4° C. with rotation O/N covered in foil. • 4) Remove media and wash 3×TBS-T. • 5) Elute by addition of 220 ul 95% Formamide. 10 mM EDTA 0.4 mg/ml biotin—2 min@65° C. • 6) Pipetted 100 uL of each sample×2 on 96 well plate • 7) Fluorescence was read out on a microplate reader for Fluorescein channel, and against a standard curve. […]"}, "[3]": {"details": "mice, gastric gavage", "method": "FIGS. 4A-4D. In vivo mouse studies. Absorption from intestine into blood for GM-fusion molecules 15 and 30 minutes after gastric gavage (FIG. 4A), and absorption from intestine into liver for GM-fusion molecules 1 hour after gastric gavage (FIG. 4B) are shown. […] Time course for absorption into blood was plotted (FIG. 4C). N=3 independent studies."}, "[4]": {"test": "Bioavailability and pharmacokinetics of peptide fused to GM1-C4:0 in rat (gastric route or intravenous injection)", "details": "day one after intravenous injection", "method": "Next, the bioavailability and pharmacokinetics of a peptide fused to GM-C4:0 was tested in vivo in rat."}, "[5]": {"test": "Nasal absorption of ceramide-C6 reporter peptide conjugate in mice", "type": "in vivo, C57BL/6J mice", "details": "2 nmol/kg, blood 15 minutes post dose", "method": "A reporter peptide was conjugated to a ceramide-C6 (Cer-C6) was administered to C57BL/6J mice (n=1, from Jackson Labs) at a dose of 2 nmol/kg. GM1-C6 conjugated to the same reported peptide was used as control. A total of 5 μl per nostril was administered over 5 minutes under isoflurane. Blood was collected via cardiac puncture 15 minutes post dose and the amount of the conjugate was evaluated by pulling down with magnetic streptavidin beads followed by elution and plate fluorescence measurement."}, "T84 intestinal cells": {"tested_on": "T84 intestinal cells", "test": "Transcytosis across T84 intestinal cells", "type": "in vitro ADME"}}, "data": [{"molecule": "CCCCCCCCCCCCC/C=C/[C@@H](O)[C@H](CO[C@@H]1O[C@H](CO)[C@@H](O[C@@H]2O[C@H](CO)[C@H](O[C@@H]3O[C@H](CO)[C@H](O)[C@H](O[C@@H]4O[C@H](CO)[C@H](O)[C@H](O)[C@H]4O)[C@H]3NC(C)=O)[C@H](O[C@]3(C(=O)O)C[C@H](O)[C@@H](NC(C)=O)[C@H](C=NOCC(=O)NCCCC[C@@H](NC(=O)CNC(=O)[C@@H](CO)NC(=O)CNC(=O)[C@@H](CCCNC(=N)N)NC(=O)CNC(=O)[C@@H](Cc4ccc(O)cc4)NC(=O)CNC(=O)[C@@H](CO)NC(=O)CNC(=O)[C@@H](CCCCNC(=O)CCCC[C@@H]4SC[C@@H]5NC(=O)N[C@@H]54)NC(=O)[C@H](N)Cc4cn(CCCCCCNC(=O)c5ccc(-c6c7ccc(=N)c(S(=O)(=O)O)c-7oc7c(S(=O)(=O)O)c(N)ccc67)c(C(=O)O)c5)nn4)C(N)=O)O3)[C@H]2O)[C@H](O)[C@H]1O)NC(=O)CCCCC", "note": "[peptide fused to GM1-C6:0]", "values": [{"measurement": "bioavailability", "setting": "[1]", "result": 24.4, "unit": "%"}]}, {"molecule": "N=C(N)NCCC[C@@H](NC(=O)CNC(=O)[C@@H](Cc1ccc(O)cc1)NC(=O)CNC(=O)[C@@H](CO)NC(=O)CNC(=O)[C@@H](CCCCNC(=O)CCCC[C@@H]1SC[C@@H]2NC(=O)N[C@@H]21)NC(=O)[C@H](N)Cc1cn(CCCCCCNC(=O)c2ccc(-c3c4ccc(=N)c(S(=O)(=O)O)c-4oc4c(S(=O)(=O)O)c(N)ccc34)c(C(=O)O)c2)nn1)C(=O)NCC(=O)N[C@H](CO)C(=O)NCC(=O)N[C@H](CCCCNC(=O)CON)C(N)=O", "note": "[peptide alone]", "values": [{"measurement": "intracellular localization", "setting": "[2]", "result": "did not enter into cells"}, {"measurement": "transcytosis across MDCK cell monolayer", "setting": "MDCK cells; apical to basolateral, 37° C.", "result": "did not cross the epithelial barrier"}, {"measurement": "bioavailability", "setting": "[1]", "result": 1.3, "unit": "%"}, {"measurement": "absorption from intestine into blood and liver", "setting": "[3]", "result": "not absorbed"}, {"measurement": "level in rat serum", "setting": "[4]", "result": 10.8, "unit": "nmol/kg"}]}, {"molecule": "AF488-LC9-oxime-C6-ceramide [Cer-C6]", "values": [{"measurement": "absorption via the nose", "setting": "[5]", "result": "absorbed more efficiently than peptide conjugated to GM1-C6"}, {"measurement": "absorption via the nose", "setting": "[5]; listed as ceramide C6", "result": "absorbed via the nose"}, {"measurement": "absorption via the nose", "setting": "[5]; listed as ceramide-C6-reporter peptide conjugate", "result": "can be absorbed via nose in mice"}, {"measurement": "transport with 4° C. temperature block", "setting": "MDCK cells; MDCK", "result": "reduced the uptake"}, {"measurement": "transcytosis across T84 intestinal cells", "setting": "T84 intestinal cells", "result": "greater than for peptides fused to GM1 or GM3 species"}]}, {"molecule": "glucagon-like peptide-1 (GLP-1) [GLP-1 peptide alone]", "values": [{"measurement": "effect on glucose metabolism in glucose tolerance test", "setting": "mice, gastric gavage", "result": "no detectable effect on glucose metabolism"}, {"measurement": "absorption after gastric gavage", "setting": "mouse, in vivo", "result": "not absorbed"}]}]}
